Experimental data taken from patent publication CN114028561A.

Target: 天然TSLP
Assay: cell-based or functional assay

- IC50 of inhibition of natural TSLP-induced STAT5 phosphorylation in SW756-STAT5-Luciferase reporter cells: 1.45 ng/mL
Substance: Tezepelumab (antibody)
